Results reported in US20220177579A1 (published 2022).

T1: human CD19 on CD19(+) NALM6 acute lymphoid leukemia cells (UniProt P15391 20-556)
T1 chain: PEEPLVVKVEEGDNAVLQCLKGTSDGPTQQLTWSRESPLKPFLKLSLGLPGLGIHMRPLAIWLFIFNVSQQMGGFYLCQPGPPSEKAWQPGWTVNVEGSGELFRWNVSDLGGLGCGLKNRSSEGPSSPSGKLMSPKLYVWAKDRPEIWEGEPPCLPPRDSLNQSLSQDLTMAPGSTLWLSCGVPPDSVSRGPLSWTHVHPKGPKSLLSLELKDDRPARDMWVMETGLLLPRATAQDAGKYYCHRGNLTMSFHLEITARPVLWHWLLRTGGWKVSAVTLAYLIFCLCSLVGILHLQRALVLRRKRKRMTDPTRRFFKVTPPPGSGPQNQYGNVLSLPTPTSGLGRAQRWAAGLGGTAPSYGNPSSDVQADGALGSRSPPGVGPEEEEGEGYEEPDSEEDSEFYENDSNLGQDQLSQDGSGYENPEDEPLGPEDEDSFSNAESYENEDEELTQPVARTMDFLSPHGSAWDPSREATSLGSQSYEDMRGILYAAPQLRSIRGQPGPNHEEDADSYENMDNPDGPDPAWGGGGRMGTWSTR


Target: T1, human CD19 on CD19(+) NALM6 acute …
Experiment: FACS

| Binder | EC50 |
| --- | --- |
| L1+H8b (antibody, V domains shown) VH: QVQLQESGPGLVKPSETLSVTCTVSGVSLPDYGVSWIRQPPGKGLEWIGVIWGSETTYYNPSLKSRLTISKDTSKNQFSLKLSSVTAADTAVYYCAKHYYYGGSYAMDYWGQGTSVTVSS VL: DIQMTQSPSSLSASVGDRVTITCRASQDISKYLNWYQQKPGKAVKLLIYHTSRLHTGVPSRFSGSGSGTDYTLTISSLQPEDIATYFCQQGNTLPYTFGGGTKLEIT | 0.13 µg/mL |
| L1+H2b (antibody, V domains shown) VH: QVQLQESGPGLVKPSETLSLTCTVSGVSLPDYGVSWIRQPPGKGLEWLGVIWGSETTNYNPSLKSRVTISKDTSKNQFSLKLSSLTAADTAVYYCAKHYYYGGSYAMDYWGQGTSVTVSS VL: DIQMTQSPSSLSASVGDRVTITCRASQDISKYLNWYQQKPGKAVKLLIYHTSRLHTGVPSRFSGSGSGTDYTLTISSLQPEDIATYFCQQGNTLPYTFGGGTKLEIT | 0.23 µg/mL |
| L1+H5b (antibody, V domains shown) VH: QVQLQESGPGLVKPSETLSLTCTVSGVSLPDYGVSWIRQPPGKGLEWIGVIWGSETTNYNPSLKSRVTISKDTSKSQVSLKLSSVTAADTAVYYCAKHYYYGGSYAMDYWGQGTSVTVSS VL: DIQMTQSPSSLSASVGDRVTITCRASQDISKYLNWYQQKPGKAVKLLIYHTSRLHTGVPSRFSGSGSGTDYTLTISSLQPEDIATYFCQQGNTLPYTFGGGTKLEIT | 0.18 µg/mL |
| L2+H2b (antibody, V domains shown) VH: QVQLQESGPGLVKPSETLSLTCTVSGVSLPDYGVSWIRQPPGKGLEWLGVIWGSETTNYNPSLKSRVTISKDTSKNQFSLKLSSLTAADTAVYYCAKHYYYGGSYAMDYWGQGTSVTVSS VL: DIQMTQSPSSLSASVGDRVTITCQASQDISKYLNWYQQKPGKAVKLLIYHTSRLHSGVPSRFSGSGSGTDYTLTISSLQPEDIATYFCQQGNTLPYTFGGGTKLEIT | 0.17 µg/mL |
| L1+H4 (antibody, V domains shown) VH: QVQLQESGPGLVKPSETLSLTCTVSGVSLPDYGVSWIRQPPGKGLEWIGVIWGSETTNYNPSLKSRVTISVDNSKNQFSLKLSSLTAADTAVYYCAKHYYYGGSYAMDYWGQGTSVTVSS VL: DIQMTQSPSSLSASVGDRVTITCRASQDISKYLNWYQQKPGKAVKLLIYHTSRLHTGVPSRFSGSGSGTDYTLTISSLQPEDIATYFCQQGNTLPYTFGGGTKLEIT | 0.25 µg/mL |
| L1+H3 (antibody, V domains shown) VH: QVQLQESGPGLVKPSETLSLTCTVSGVSLPDYGVSWIRQPPGKGLEWIGVIWGSETTNYNPSLKSRLTISVDTSKNQFSLKMSSVTAADTAVYYCAKHYYYGGSYAMDYWGQGTSVTVSS VL: DIQMTQSPSSLSASVGDRVTITCRASQDISKYLNWYQQKPGKAVKLLIYHTSRLHTGVPSRFSGSGSGTDYTLTISSLQPEDIATYFCQQGNTLPYTFGGGTKLEIT | 0.37 µg/mL |
| L1+H7b (antibody, V domains shown) VH: QVQLQESGPGLVKPSETLSLTCTVSGVSLPDYGVSWIRQPPGKGLEWIGVIWGSETTYYNPSLKSRVTISKDTSKSQFSLKMSSVTAADTAVYYCAKHYYYGGSYAMDYWGQGTSVTVSS VL: DIQMTQSPSSLSASVGDRVTITCRASQDISKYLNWYQQKPGKAVKLLIYHTSRLHTGVPSRFSGSGSGTDYTLTISSLQPEDIATYFCQQGNTLPYTFGGGTKLEIT | 0.07 µg/mL |
| L1+H1b (antibody, V domains shown) VH: QVQLQESGPGLVKPSETLSVTCTVSGVSLPDYGVSWIRQPPGKGLEWIGVIWGSETTYYNPSLKSRVTISVDTSKNQVSLKLSSVTAADTAVYYCAKHYYYGGSYAMDYWGQGTSVTVSS VL: DIQMTQSPSSLSASVGDRVTITCRASQDISKYLNWYQQKPGKAVKLLIYHTSRLHTGVPSRFSGSGSGTDYTLTISSLQPEDIATYFCQQGNTLPYTFGGGTKLEIT | 0.13 µg/mL |
| L1+H6b (antibody, V domains shown) VH: QVQLQESGPGLVKPSETLSLTCTVSGVSLPDYGVSWIRQPPGKGLEWLGVIWGSETTYYNPSLKSRVTISVDNSKNQFSLKLSSVTAADTAVYYCAKHYYYGGSYAMDYWGQGTSVTVSS VL: DIQMTQSPSSLSASVGDRVTITCRASQDISKYLNWYQQKPGKAVKLLIYHTSRLHTGVPSRFSGSGSGTDYTLTISSLQPEDIATYFCQQGNTLPYTFGGGTKLEIT | 0.08 µg/mL |

Further lines, results first:

| EC50 | Binder |
| --- | --- |
| 0.1 µg/mL | CD19-BsAb BC250 (hFMC63 VL-2/VH-1b x CD3 IgG-scFv bispecific antibody) (bispecific antibody) heavy: not shown light: DIQMTQSPSSLSASVGDRVTITCQASQDISKYLNWYQQKPGKAVKLLIYHTSRLHSGVPSRFSGSGSGTDYTLTISSLQPEDIATYFCQQGNTLPYTFGGGTKLEITRTVAAPSVFIFPPSDEQLKSGTASVVCLLNNFYPREAKVQWKVDNALQSGNSQESVTEQDSKDSTYSLSSTLTLSKADYEKHKVYACEVTHQGLSSPVTKSFNRGECTSGGGGSGGGGSGGGGSQVQLVQSGGGVVQPGRSLRLSCKASGYTFTRYTMHWVRQAPGKCLEWIGYINPSRGYTNYNQKFKDRFTISRDNSKNTAFLQMDSLRPEDTGVYFCARYYDDHYSLDYWGQGTPVTVSSGGGGSGGGGSGGGGSGGGGSGGGGSGGGGSDIQMTQSPSSLSASVGDRVTITCSASSSVSYMNWYQQTPGKAPKRWIYDTSKLASGVPSRFSGSGSGTDYTFTISSLQPEDIATYYCQQWSSNPFTFGCGTKLQITR |
| 0.1 µg/mL | L2+H8b (antibody, V domains shown) VH: QVQLQESGPGLVKPSETLSVTCTVSGVSLPDYGVSWIRQPPGKGLEWIGVIWGSETTYYNPSLKSRLTISKDTSKNQFSLKLSSVTAADTAVYYCAKHYYYGGSYAMDYWGQGTSVTVSS VL: DIQMTQSPSSLSASVGDRVTITCQASQDISKYLNWYQQKPGKAVKLLIYHTSRLHSGVPSRFSGSGSGTDYTLTISSLQPEDIATYFCQQGNTLPYTFGGGTKLEIT |
| 0.42 µg/mL | L3+H4 (antibody, V domains shown) VH: QVQLQESGPGLVKPSETLSLTCTVSGVSLPDYGVSWIRQPPGKGLEWIGVIWGSETTNYNPSLKSRVTISVDNSKNQFSLKLSSLTAADTAVYYCAKHYYYGGSYAMDYWGQGTSVTVSS VL: DIQMTQSTSSLSASVGDRVTITCRASQDISKYLNWYQQKPGKAVKLLIYHTSRLHSGVPSRFSGSGSGTDYTFTISSLQPEDIATYYCQQGNTLPYTFGGGTKLEIT |
| 0.28 µg/mL | L3+H2b (antibody, V domains shown) VH: QVQLQESGPGLVKPSETLSLTCTVSGVSLPDYGVSWIRQPPGKGLEWLGVIWGSETTNYNPSLKSRVTISKDTSKNQFSLKLSSLTAADTAVYYCAKHYYYGGSYAMDYWGQGTSVTVSS VL: DIQMTQSTSSLSASVGDRVTITCRASQDISKYLNWYQQKPGKAVKLLIYHTSRLHSGVPSRFSGSGSGTDYTFTISSLQPEDIATYYCQQGNTLPYTFGGGTKLEIT |
| 0.19 µg/mL | L3+H1b (antibody, V domains shown) VH: QVQLQESGPGLVKPSETLSVTCTVSGVSLPDYGVSWIRQPPGKGLEWIGVIWGSETTYYNPSLKSRVTISVDTSKNQVSLKLSSVTAADTAVYYCAKHYYYGGSYAMDYWGQGTSVTVSS VL: DIQMTQSTSSLSASVGDRVTITCRASQDISKYLNWYQQKPGKAVKLLIYHTSRLHSGVPSRFSGSGSGTDYTFTISSLQPEDIATYYCQQGNTLPYTFGGGTKLEIT |
| 0.19 µg/mL | L2+H5b (antibody, V domains shown) VH: QVQLQESGPGLVKPSETLSLTCTVSGVSLPDYGVSWIRQPPGKGLEWIGVIWGSETTNYNPSLKSRVTISKDTSKSQVSLKLSSVTAADTAVYYCAKHYYYGGSYAMDYWGQGTSVTVSS VL: DIQMTQSPSSLSASVGDRVTITCQASQDISKYLNWYQQKPGKAVKLLIYHTSRLHSGVPSRFSGSGSGTDYTLTISSLQPEDIATYFCQQGNTLPYTFGGGTKLEIT |
| 0.08 µg/mL | L3+H7b (antibody, V domains shown) VH: QVQLQESGPGLVKPSETLSLTCTVSGVSLPDYGVSWIRQPPGKGLEWIGVIWGSETTYYNPSLKSRVTISKDTSKSQFSLKMSSVTAADTAVYYCAKHYYYGGSYAMDYWGQGTSVTVSS VL: DIQMTQSTSSLSASVGDRVTITCRASQDISKYLNWYQQKPGKAVKLLIYHTSRLHSGVPSRFSGSGSGTDYTFTISSLQPEDIATYYCQQGNTLPYTFGGGTKLEIT |
| 0.27 µg/mL | L2+H4 (antibody, V domains shown) VH: QVQLQESGPGLVKPSETLSLTCTVSGVSLPDYGVSWIRQPPGKGLEWIGVIWGSETTNYNPSLKSRVTISVDNSKNQFSLKLSSLTAADTAVYYCAKHYYYGGSYAMDYWGQGTSVTVSS VL: DIQMTQSPSSLSASVGDRVTITCQASQDISKYLNWYQQKPGKAVKLLIYHTSRLHSGVPSRFSGSGSGTDYTLTISSLQPEDIATYFCQQGNTLPYTFGGGTKLEIT |
| 0.06 µg/mL | L2+H7b (antibody, V domains shown) VH: QVQLQESGPGLVKPSETLSLTCTVSGVSLPDYGVSWIRQPPGKGLEWIGVIWGSETTYYNPSLKSRVTISKDTSKSQFSLKMSSVTAADTAVYYCAKHYYYGGSYAMDYWGQGTSVTVSS VL: DIQMTQSPSSLSASVGDRVTITCQASQDISKYLNWYQQKPGKAVKLLIYHTSRLHSGVPSRFSGSGSGTDYTLTISSLQPEDIATYFCQQGNTLPYTFGGGTKLEIT |
| 0.08 µg/mL | L2+H6b (antibody, V domains shown) VH: QVQLQESGPGLVKPSETLSLTCTVSGVSLPDYGVSWIRQPPGKGLEWLGVIWGSETTYYNPSLKSRVTISVDNSKNQFSLKLSSVTAADTAVYYCAKHYYYGGSYAMDYWGQGTSVTVSS VL: DIQMTQSPSSLSASVGDRVTITCQASQDISKYLNWYQQKPGKAVKLLIYHTSRLHSGVPSRFSGSGSGTDYTLTISSLQPEDIATYFCQQGNTLPYTFGGGTKLEIT |
